Measured values published in the supplement of paper PMC9170038.

Tested on: K4 kissing-loop RNA reporter
Test: apparent KD of K4 kissing-loop reporter; higher = weaker reporter binding
Settings: Eterna round: R107
Protocol: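 RNA-MaP round R107: designed RNA switches with theophylline, tryptophan, arginine or FMN aptamers are transcribed on-chip within common flanks. They are titrated with a labelled K4 kissing-loop RNA reporter in RNA-MaP buffer (100 mM Tris pH 7.5, 80 mM KCl, 4 mM MgCl2), without ligand or with the indicated ligand. Median apparent KD per design.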

[1] = input ligand: theophylline 20 uM
[2] = input ligand: tryptophan 2.4 mM
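Further: bound reporter read as fluorescence of individual clusters on recovered sequencing chips by microscopy, with normalized cluster intensities fitted with a binding model.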

Sequence | apparent KD of K4 kissing-loop reporter (input ligand: FMN 200 uM) [nM] | apparent KD of K4 kissing-loop reporter (input ligand: arginine 13.2 mM) [nM] | apparent KD of K4 kissing-loop reporter (input ligand: none) [nM] | apparent KD of K4 kissing-loop reporter [1] [nM] | apparent KD of K4 kissing-loop reporter [2] [nM]
AGACUACCACACUGUCAAUAGACAGUGAACUAGGAUAUGCUGAUAAGCAGAAGGAGUGAUGUUCCUGGGUAGUCAAUAAAAUAAU [FmnAX 13 G67] | 372 | 338 | 367 | 427 | 364
AGACUACCACACUGUCAAUAGACAGUGGACUAGGAUAUGCUGAUAAGCAGAAGGAGUGAUGUUCCGAGGUAGUCAAUAAAAUAAU [FmnAX 13 G28+G66] | 304 | 309 | 315 | 401 | 316
AGACUACCACACUGUCAAUAGACAGUGGACUAGGAUAUGCUGAUAAGCAGAAGGAGUGAUGUUCCUGGGUAGUCAAUAAAAUAAU [FmnAX 13 G28+G67] | 484 | 366 | 526 | 696 | 425
AGACUACCUACACUGUCAAUAGACAGUGACUAGGAUAUGCUGAUAAGCAGAAGGAGUGAUGUUCCAAAUAAAAGGUGGUAGUCAU [FmnAX 18 #SwitchBubble #StaticStem #K4Early] | 378 | 160 | 142 | 152 | 111
AGACUACUGAUAGGAUAUAACAUACUACUCGUAUACCAAAGGUAUACGAGAACCCUUCUAGUGAUGUUAGAAGGGUCGGUAGUCA [Omei KL FMN B Exc B v7] | 82.6 | 68 | 70.9 | 70.1 | 72.8
AGACUAUCGUCAAAGACGGUAGUCAAAAGUGAGGAUAUAAGUGAUGUUAGAAGGCACUAAGACUGUAUCGAAUAGAUACGGUCAA [FmnA 2 #K4BetweenAptamer #OpenEnded] | 1450 | 425 | 721 | 534 | 600
AGACUUCACCGAAGGAGCGACGUAGCCUAGUGAUGUUAGGCAAGAGAGAAAUCUCUUAAACGUCAGGUAGGUCGCGGUGAAGUCA [Omei KL Arginine B SS C v3] | 262 | 163 | 202 | 227 | 190
AGAGUCGGCUGUGAUACCAGUCGUAUAACAACAUGUCGCAGUGAUGUUGCGAGAUAGGAUGACCCUUGGCAGCACUCAGUACGAU [Same State Theophylline B GF 7] | 425 | 372 | 347 | 404 | 426
AGAGUUAUAUGAGGAUAUGAGAUAGUUAAUGAGUGAGUUAUAGUGUAGUUUGUUUAGUGAUGUUAUUUAGAAGGCGUGAGUGAUG [ljjlumullin] | 140 | 89.4 | 122 | 133 | 88.8
AGAUAGGGCUGAAGGAGCGUCGGAGAAGAAAAGAAGAAAUCCAGUGAUGUUGGAUAAAUCCGACAGGUAGGUCGCAGUUUUAUGA [hbob_SS_Arginine_B_2t136] | 109 | 116 | 127 | 140 | 119
AGAUGUCCCUGGGAUACCAGUCGGAGUCUCAGGGCUCGGAGUGAUGUUCUGGGAUGUUUCGGCCCUUGGCAGCCCUGGGACUCCC [#2 Exclusion - Theophylline B Attempt #26 (HarryS)] | 573 | 266 | 908 | 671 | 398
AGAUGUUCCUGGGAUACCAGUCGGAGUCUCAGAGCUCGGAGUGAUGUUCUGGGAUGUUUCGGCCCUUGGCAGCUCUGGGACUCCC [#2 Exclusion - Theophylline B Attempt #24 (HarryS)] | 1120 | 624 | 642 | 735 | 726
AGAUUCGGCACGGCCGCCACUUCCGGUGGCUGGUGUCAUGGUGCGCGUGAGUGAUGUUUAUGUGGGAGGACCGGGUGUUGAGUCU [whbob_Ex_Tryp_B_w43] | 974 | 411 | 898 | 592 | 603
AGCAGCAAAUCCUAGUGAUGUUAGGAUAUGUAGGAUAUCGGGAUACCGAGAAGGACAGAAGGAGGAGUGAUGUUCCUCAGCUGCA [FmnAX 23 #DoubleAptamer #DoubleK4 #SwitchBubble] | 116 | 106 | 104 | 102 | 94.9
AGCCAGGAACUUGCAACCUGGCUGCUGGAUACCAGCUCGGAAACGAGCCCUUGGCAGCCAGUACUUGCAGUGAUGUUGCAAGUUC [Design13] | 72.2 | 37.3 | 153 | 25.9 | 290
AGCCUAGGAGUCAUUUCCUGCCCGUACGAUACCAGCAUUACCAGUUGCCCUUGGCAGCGUUAUAAGGCCAGUGAUGUUGGCCACU [theeternabot_sameState_KL_Theo_A_22] | 168 | 175 | 185 | 197 | 167
AGCCUGAUAUAAGGAUAUCCGGACCGAGUAACUGAGUGAUGUUCAGGUGAAUAAUGUCUCACAUUGGGAGAAGGUAUUUCAGCGA [theeternabot_sameState_KL_FMN_B_21] | 232 | 182 | 251 | 276 | 225
